Biological target: SARS-CoV-2 Omicron BA.4/5 spike (S) trimer, prefusion-stabilised ectodomain (SARS-CoV-2 (Omicron BA.4/5) | bacteriophage T4) (UniProt P0DTC2)
Experiment: cryo-EM structure

## SARS-CoV-2 Omicron BA.4/5 spike (S) trimer, prefusion-stabilised ectodomain (from UniProt P0DTC2 14-1208) (complex)
  stoichiometry N: 3

Reference: paper PMC10267556
